Biological target: T1, His-tagged P3028 peptide (PGE73) (human)
T1 construct: also called His-tag-P3028; not shown: His-tag
T1 peptide: VFDEFKPLVEEPQNLIK
Assay: PEPSCAN ELISA; peptide on card, His-tagged P3028 in solution;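 also: bound protein detected by peroxidase colour with ABTS substrate, imaged on the peptide card by CCD camera at 405 nm, rampo units being raw OD405 readings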

Binder	RAMPO Score
KKLDTFFVALSLFTER (P28R variant on PEPSCAN card) [SEQ ID NO: 554]	191 rampo units
KKLDTFFVDLSLFTER (P28R variant on PEPSCAN card) [SEQ ID NO: 569]	149 rampo units
KKLDTFFVILSLFTER (P28R variant on PEPSCAN card) [SEQ ID NO: 555]	190 rampo units
KKLDTFFVLLSLFTER (P28R variant on PEPSCAN card) [SEQ ID NO: 562]	166 rampo units
KKLDTFFVFLSLFTER (P28R variant on PEPSCAN card) [SEQ ID NO: 560]	174 rampo units
KKLDTEFVKLSLFTER (P28R variant on PEPSCAN card) [SEQ ID NO: 536]	229 rampo units
KKLDTDFVKLSLFTER (P28R variant on PEPSCAN card) [SEQ ID NO: 553]	193 rampo units
KKLDTFFVKLSLFTFR (P28R variant on PEPSCAN card) [SEQ ID NO: 571]	137 rampo units
KKLDTFFVKLSLFTGR (P28R variant on PEPSCAN card) [SEQ ID NO: 101]	233 rampo units
KKLDTFFVKLSLFTWR (P28R variant on PEPSCAN card) [SEQ ID NO: 539]	226 rampo units
KKLDTFFVKLSLFTCR (P28R variant on PEPSCAN card) [SEQ ID NO: 556]	185 rampo units
KKLDTFFVKLSLFTNR (P28R variant on PEPSCAN card) [SEQ ID NO: 566]	161 rampo units
KKLDTFFVKLSLFTAR (P28R variant on PEPSCAN card) [SEQ ID NO: 561]	174 rampo units
KKLDTFFVKLSLFTIR (P28R variant on PEPSCAN card) [SEQ ID NO: 564]	163 rampo units
KKLDTFFVKLSLFTTR (P28R variant on PEPSCAN card) [SEQ ID NO: 568]	152 rampo units
KKLDTFFVKLSLFTVR (P28R variant on PEPSCAN card) [SEQ ID NO: 565]	163 rampo units
KKLDTFFVKLSLFTSR (P28R variant on PEPSCAN card) [SEQ ID NO: 563]	165 rampo units
KKLDTFFVKLSLKTER (P28R variant on PEPSCAN card) [SEQ ID NO: 542]	220 rampo units
KKLDTFFVKLSLETER (P28R variant on PEPSCAN card) [SEQ ID NO: 579]	98 rampo units
KKLDTFFVKLSLDTER (P28R variant on PEPSCAN card) [SEQ ID NO: 575]	112 rampo units
KKLDTFKVKLSLFTER (P28R variant on PEPSCAN card) [SEQ ID NO: 535]	232 rampo units
KKLDTFFWKLSLFTER (P28R variant on PEPSCAN card) [SEQ ID NO: 537]	228 rampo units
KKLDTFFEKLSLFTER (P28R variant on PEPSCAN card) [SEQ ID NO: 570]	139 rampo units
KKLDTFFMKLSLFTER (P28R variant on PEPSCAN card) [SEQ ID NO: 540]	221 rampo units
KKLDTFFNKLSLFTER (P28R variant on PEPSCAN card) [SEQ ID NO: 550]	203 rampo units
KKLDTFFSKLSLFTER (P28R variant on PEPSCAN card) [SEQ ID NO: 545]	216 rampo units
KKLDTFFDKLSLFTER (P28R variant on PEPSCAN card) [SEQ ID NO: 574]	122 rampo units
KKLDTFFYKLSLFTER (P28R variant on PEPSCAN card) [SEQ ID NO: 549]	211 rampo units
KKLDTFFHKLSLFTER (P28R variant on PEPSCAN card) [SEQ ID NO: 547]	213 rampo units
